Source: patent US7109170B2, “Region of factor IXa protease domain that interacts with factor VIIIa and methods therefor” (Saint Louis University, priority 1999, dated 2006)

How the values were obtained:
Assay type in all cases: biochemical
factor VIIIa [1] = biological target: T1, factor VIIIa (Homo sapiens, UniProt P00451); experiment: inhibition of Xa generation by active site-blocked (DEGR) IXa proteins, absence of phospholipid (Kd,app for VIIIa)
T1 construct: purchased Dr. Leon Hoyer (American Red Cross, Rockville, Md.)
T1 sequence (P00451 20-759 limits assumed): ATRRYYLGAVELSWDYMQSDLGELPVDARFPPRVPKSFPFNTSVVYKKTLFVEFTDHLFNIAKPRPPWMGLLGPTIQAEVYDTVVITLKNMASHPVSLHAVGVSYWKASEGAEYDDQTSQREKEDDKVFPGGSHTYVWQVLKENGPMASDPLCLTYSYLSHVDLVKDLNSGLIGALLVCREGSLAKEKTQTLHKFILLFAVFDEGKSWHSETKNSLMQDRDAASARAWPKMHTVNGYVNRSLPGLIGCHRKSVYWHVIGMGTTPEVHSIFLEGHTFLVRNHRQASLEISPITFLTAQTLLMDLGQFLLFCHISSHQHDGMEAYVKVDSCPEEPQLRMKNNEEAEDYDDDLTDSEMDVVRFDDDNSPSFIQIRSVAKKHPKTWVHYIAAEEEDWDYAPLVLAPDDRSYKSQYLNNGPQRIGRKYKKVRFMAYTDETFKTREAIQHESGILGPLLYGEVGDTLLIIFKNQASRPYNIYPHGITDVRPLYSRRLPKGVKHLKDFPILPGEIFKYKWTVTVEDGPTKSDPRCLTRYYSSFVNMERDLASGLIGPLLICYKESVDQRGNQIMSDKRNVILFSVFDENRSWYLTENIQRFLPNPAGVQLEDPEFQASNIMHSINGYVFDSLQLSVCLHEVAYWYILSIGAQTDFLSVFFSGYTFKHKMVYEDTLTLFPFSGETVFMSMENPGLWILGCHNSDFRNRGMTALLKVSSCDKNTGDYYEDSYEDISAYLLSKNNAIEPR
T1 sequence (P00451 1668-2351 limits assumed): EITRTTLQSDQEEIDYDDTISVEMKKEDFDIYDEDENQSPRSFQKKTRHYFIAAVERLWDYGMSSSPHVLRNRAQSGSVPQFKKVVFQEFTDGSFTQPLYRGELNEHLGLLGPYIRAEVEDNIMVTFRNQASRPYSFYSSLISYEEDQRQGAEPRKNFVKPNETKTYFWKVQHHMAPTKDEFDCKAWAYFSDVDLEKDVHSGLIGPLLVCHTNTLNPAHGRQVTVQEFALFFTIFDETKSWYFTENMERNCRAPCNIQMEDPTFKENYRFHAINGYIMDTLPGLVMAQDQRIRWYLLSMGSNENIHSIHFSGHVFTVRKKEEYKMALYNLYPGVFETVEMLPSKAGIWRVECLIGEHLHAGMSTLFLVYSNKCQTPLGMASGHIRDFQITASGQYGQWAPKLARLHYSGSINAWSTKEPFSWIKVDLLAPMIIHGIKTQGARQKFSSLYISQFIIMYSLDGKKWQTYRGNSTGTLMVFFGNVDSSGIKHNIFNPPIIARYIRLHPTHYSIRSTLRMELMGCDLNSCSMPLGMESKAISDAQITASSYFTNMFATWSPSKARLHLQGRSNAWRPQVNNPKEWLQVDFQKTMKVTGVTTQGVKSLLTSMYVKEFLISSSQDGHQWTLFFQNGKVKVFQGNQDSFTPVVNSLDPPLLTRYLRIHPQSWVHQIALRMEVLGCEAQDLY
Method: (§1) Apparent Kds of factor VIIIa binding to various active site-blocked factor IXa proteins were determined from inhibition experiments as detailed in Mathur et al., 1997, supra. […] Reactions were carried out for 2 min and the rates of factor X activation were measured as outlined above.
(§2) Various DEGR-ck-inhibited factor IXa proteins were prepared for these experiments as follows. IXNP, IXWT, and each mutant factor IX at 200 μg/ml was activated by factor XIa (2 μg/ml) for 90 min. in TBS, pH 7.4 (0.05 M Tris, 0.15 M NaCl, pH 7.4) containing 5 mM Ca^2+.
(§3) Enzymol. 74, 481–508 given below:
(§4) [formula] where y is the rate of Xa formation in the presence of a given concentration of DEGR-IXa protein represented by x, a is the maximum rate of Xa formation in the absence of DEGR-IXa, and s is the slope factor. Each point was weighted equally and the data were fitted to Equation 1 using the nonlinear regression analysis program obtained from Erithacus Software (GraFit). […] To obtain the Kd,app values for the interaction of DEGR-IXa proteins with factor VIIIa, the following equation was used, as described by Cheng and Prusoff, 1973, Biochem. Pharmacol. 22, 3099–3108 and further discussed by Craig, 1993, Trends Pharmacol. Sci. 6, 68–71.

factor VIIIa [2] = biological target: T1, factor VIIIa; experiment: inhibition of Xa generation by active site-blocked (DEGR) IXa proteins, presence of phospholipid (Kd,app for VIIIa)
Method: as §1, §2, §3, §4

[3] = test system: Factor IX deficient plasma; experiment: coagulant activity of XIa-activated IXa proteins

**Q.** “IXaV331A: activated factor IX mutant V331A” was tested. Which “fold-reduction in affinity for factor VIIIa compared with DEGR-IXaWT” value (factor VIIIa [1]; absence of phospholipid) did it give?
**A.** 7 fold

**Q.** And the Kd (factor VIIIa [1]; active site-blocked (DEGR) IXa proteins, no phospholipid, read-out: Kd, app for interaction with factor VIIIa, PL-minus system)?
**A.** 1350 ± 310 nM

**Q.** What about the Kd (factor VIIIa [2]; active site-blocked (DEGR) IXa proteins, 10 μM phospholipid, read-out: Kd, app for interaction with factor VIIIa, PL-plus system) of the same substance?
**A.** 0.61 ± 0.08 nM

**Q.** And the “fold-reduction in affinity for factor VIIIa compared with DEGR-IXaWT” value (factor VIIIa [2]; presence of phospholipid)?
**A.** 11 fold

**Q.** What about the “coagulant activity as compared to IXaNP” value [3] of the same substance?
**A.** ~6%
